Data on 1 molecule can be found in paper PMC3504009 (PLoS ONE, 2012).

The test addresses T1, YscUCC, C-terminal polypeptide of the cleaved cytosolic domain YscUC of YscU, wild type (Y. pseudotuberculosis, UniProt P69987 264-354).
T1 sequence: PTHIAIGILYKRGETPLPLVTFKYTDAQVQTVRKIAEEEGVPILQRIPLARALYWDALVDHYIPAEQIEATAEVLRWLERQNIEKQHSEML
As to the kind of experiment: circular dichroism, dissociation kinetics. The conditions noted are these: both partners purified.

B1: YscUCN, N-terminal cytoplasmic polypeptide of the cleaved cytosolic domain YscUC of YscU (domain or fragment)
chain: IKELKMSKDEIKREYKEMEGSPEIKSKRRQFHQEIQSRNMRENVKRSSVVVAN
Regarding B1, the binding result is “binds”.
